In the DeepSol protein solubility set:

Assay: soluble on expression in E. coli; label from the status in PepcDB or PDB records
With “MSLGYATAHRRVRHLSADQVITRPETLAVEEPLEIRVNGTPVTVTMRTPGSDFELVQGFLLAEGVVAHREDVLTVSYCGRRVEGNATGASTYNVLDVALAPGVKPPDVDVTRTFYTTSSCGVCGKASLQAVSQVSRFAPGGDPATVAADTLKAMPDQLRRAQKVFARTGGLHAAALFGVDGAMLAVREDIGRHNAVDKVIGWAFERDRIPLGASVLLVSGRASFELTQKALMAGIPVLAAVSAPSSLAVSLADASGITLVAFLRGDSMNVYTRADRITEGHHHHHH” the “soluble on expression in E. coli” value was “soluble”.
In the case of “MSLGYQYDTLIYNVRIASMQDNKLPYGELPPHAIAIKDGKIAALLPCDDSLDDVFEQAKSVIDATTLIPQNEGSTPKPPWLLPGFIDCHTHLVYGGNRAEEFEMRLQGASYVDIAQRGGGIKGTVEKTRCSDENTLLHTAIKRAKRLCEEGVTTIEVKSGYGLDLDTEVRMLRVAKSLEQHLPVSIKTTYLGAHALPNEFADDSEGYIDFICNEALPHIASQNLADAVDVFCETIGFSTSQTERVFSCAQQHGLPIKAHVEQLSDSKGAVLAAKYGALSVDHIEYLADSDIPLLAQSGTVAVLLPGAFYYLSEVQKPPVDALRAHNVPMALATDFNPGSSPLASILTAINMGCVLFQLTPEEALRGATAHAASALGLHDRGVIEAGKLADLTLWDIETPAELAYCINGHRPIAVFKEGKHVEGHHHHHH”, the “soluble on expression in E. coli” value is reported as “soluble”.
With “MSLHDKQELSSKSNLNNQKGYLDNEGANSNYESKKQSILSELNQLLKQTTNSLKEAKNTTDNLNASNEANKVVEAVINAVNLISSAADQVKSATKNMHDLAQMAEIDLEKIKNSSDKAIFASNLAKEAYSLTKAAEQNMQKLYKEQQKISESESESDYSDSAEIKQAKEAVEIAWKATVEAKDKLIDVENTVKETLDKIKTETTNNTKLADIKEAAELVLQIAKNAKEIVQEVVALLNTEGHHHHHH” the “soluble on expression in E. coli” value was “soluble”.
With “MSLHSLTRIKVLQRRCTVFHSQCESILLRYQDEDRGLQAEEEAILEQIAGLKLLLDTLRAENRQLSREEIYTLLRKQSIVRRQIKDLELQIIQIQEKRSELEKKREEFQKKSKYWLRKEGNYQRWIIRQKRFYIQREIQQEEAESEEIIEGHHHHHH” the “soluble on expression in E. coli” value was “soluble”.
In the case of “MSLHSVKASANRFTKTSQGRSWNTGNGSPDAICFAVDKPGIVVVGFAVYGGGGIHEYELEVLVDDSEHAGDSTHSHRWTSLELVKGTYTTDDSPSDIAEIRLDKVVPLKENVKYAVRLRNYGSRTANGDGGMTTVQCPDGVTFTFSTCSLSSNGTNQTRGQIPQILYYRSEFDGDLQSQLLSKANEEDKNCSRALSVVSTVVRAAKDLLHRALAVDADEGHHHHHH”, the “soluble on expression in E. coli” value is reported as “soluble”.
In the case of “MSLHYQPKQDLLQNRIILVTGASDGIGREAALTYARYGATVILLGRNEEKLRRVAQHIADEQHVQPQWFTLDLLTCTAEECRQVADRIAAHYPRLDGVLHNAGLLGEIGPMSEQDPQIWQDVMQVNVNATFMLTQALLPLLLKSDAGSLVFTSSSVGRQGRANWGAYATSKFATEGMMQVLADEYQNRSLRVNCINPGGTRTSMRASAFPTEDPQKLKTPADIMPLYLWLMGDDSRRKTGMTFDAQPGRKEGHHHHHH”, the “soluble on expression in E. coli” value is reported as “soluble”.
For “MSLIGEILPLSHIVLDMEVGSKKRLFEEAGLLLERESSLSHADVFECLFAREKLGSTGLGQGVAIPHGRHAGVKQATGAFIRTREPVGFDAPDGKPVSLIFILLVPENATGEHLEVLSKLAGKFSQKSIRESLMTVSSAEEVRAILTEE”, the “soluble on expression in E. coli” value was “soluble”.
With “MSLIGITQRLICNDSYHEKRECLALDWGKLFNKDLFKNFTPLPLSYEIDFSYYKHLIKAVILSGGNDLSFYSPNVLSKKRDLYEKQVIEICLEEKIPLLGICRGAQMIAHYFNSHISPCENHIGKHEVFFSKEKFISNSFHNFAIEKLGEDLVELCLAKDNTIEAFKHKYENIFGIMWHIERENGLNNIQILKEWFSLIKEGHHHHHH” the “soluble on expression in E. coli” value was “not soluble”.
For “MSLIHSMTAFSRIQKQFDVGDFCWEIRSVNHRYLDVSFRLPESFRFLEAELRTLLRDKIHRGKLECHLKYKDTSCDNRSMLINIGTINALLDLSSKLSASHHLANDMTVSQVLSWPGVVEASLLDMEELSQIALELFQKSIDKLCEVRAGEGRSLKAYVEDRLQALRQEVMKSKSIVVSMSAKTKDKLLTRLHELQMDVPEARVEQEIALLLAKLDVSEELDRLETHIAEVSRTLNAEKVTGRRLDFLMQELNREANTLSSKSDSAELTLCAVEMKVLIEQMREQIQNFEEGHHHHHH”, the “soluble on expression in E. coli” value was “soluble”.
With “MSLIIYGYCRVSTKNQTDNNSLYQQQQEILNKYNDAKIIKETYTGTTTNRPKFEKIISSLKKGDLLVATKLDRLARSTSEGIQLIEGLFAKEVSVHILNIGLLENTSMGKFFLTTLLAVAELERNMIIERTQLGKEFAKKKKDFKDGRPKKYSNQQIQYALGLLNSKPYREVVKMTGISKSTLIRAKKSIEGHHHHHH” the “soluble on expression in E. coli” value was “soluble”.
For “MSLIPIRCHAVSGVALSTVQGETRLLMMKRVKGGFWCHVAGTVEAGETGWQTIVREFREETGIVVHELYNGQYLEQFYEHATNTVCLVPVFVVYCPPTQAVTLNHEHTEYRWSTLAEAKALAGFPGQQALYDHLWHYFVENSPSALMRVAMTEGHHHHHH”, the “soluble on expression in E. coli” value was “not soluble”.
In the case of “MSLIPVVLSGGAGTRLWPVSREGQPKPFMRLPDGQTLLGKTYRRAAGLLAGHGEIVTVTNREHYFQSKDQFHAARLGRHRGHFILEPTGRNTAPAIAVAALGLQAEHGDAAVLVVMPADHLIRNEEAFREAVGHAARLAVAGHLVTFGVVPDAAETGFGYIELGDRLDEQGAAKVRRFVEKPDEETRRRYVESGGFLWNSGMFCFTASTLVDELAQHAPALLEQARACLAASAAVKMADGIQHELAGEGFAALPDISIDYALMERSARVAVVPAAFDWSDIGSWGAMSALLDADAEGNRGSGDTLFVDTRNTFVQSDGRLVATVGVDDLVVVDTSDALLIARADRVQEVRRVVQRLKDERHEAYRLHRTVNRPWGSYTVLEEGPRFKIKRIVVRPGERLSLQMHHHRSEHWIVVQGMARVTNGDGARLVNSNESTYIPAGHRHRLENPGVIDLVMIEVQSGEYLGEDDIVRFEDQYGREGHHHHHH”, the “soluble on expression in E. coli” value is reported as “not soluble”.
With “MSLIQQQPIKPLANSQVCCSDFSQYPWIQLATTEDINFQLDKDSPIGHFSDGNSYFNAFKFAERSGKVQLRLSSLMINDSVAAPKLIALDHEFNVVSTTSLDQFDVKPSDAFTRTQFQLNFQLNAAKTPYFIIYSSNEYLGQSIKVKHPARIRAEELGEPMPMVTDPTYAYERFGKLKLSIKTLSLQADKQADQQPKVAIKSAQPETHTFYKEAIVEAVKTNDIPKALALLEEAKSLGIQDAQDTFVQALESQKEGHHHHHH” the “soluble on expression in E. coli” value was “soluble”.
For “MSLITCKFKNLGNLHAGGCGYIPLSSTREERVKNGSRVVSTALLSSYHKGIAFVIFPSHHHTPTRPPSPKPSGSGGYLLNLRRRDPPQAFLSGCPPLPPRGSVLLGCTPPRTQFFVFHVVSYPLVLQKLLQTRDQKSIGSNSSCDTSEMSDCWQVTLSI”, the “soluble on expression in E. coli” value was “not soluble”.
For “MSLITLYHCHGARSFRPLWMLEEMGLDYELKMLPFPPRVFAKEYLAINPLGTIPFMIDGDTKMTESSGICQYLGTRHGPTPLVVGVDDPAYGAYLNWMFFSDATLTFPQTLVLRYGTLEPNERRQPQVVEDYAKWFLGRLRAVEVAAGQGDYLCAGRFTAADVVNGYALRLASNLGLAKDFGPNVTAYWARLQQRDGYQRALEAETRAGEAQQVPKRAEGHHHHHH”, the “soluble on expression in E. coli” value was “soluble”.
In the case of “MSLIYQIAKEFDFCYGHRVWSQELNPDFSLDPCLSCRHLHGHQGKVIVHLESRELQRGMVTDFAHLNWFKRFIDEVLDHRFIIDIDDPLFPTLLPHFADKSALVWMEEGYARVDFERIKGESSPILELYESFVVVRFVPTSESIASWLLELLRSRIQPLGVKVSSVEFLETPKSRARVYNEGHHHHHH”, the “soluble on expression in E. coli” value is reported as “soluble”.
In the case of “MSLKAKAAFFDIDGTLYREGLISEVFKKLIKYEIIDEEKWYKEVRPEFEKWDNRKGDYDDYLLKMTEIYVDALNGLSKSQVEFIASQVVNQKGERVYTYTRDRIKWHKERGHKIITISGSPIELVRNMAEKYGFDDYRGAEYLLDENDVYTGEVIPMWDSKSKERAVHELEAKYNIDLGESYAYGDTSGDLTMLKMVGNPVCINPTKELVKEILSDEEVKNKIRIIVERKDMIYKISSRCLECDCEFVLEGHHHHHH”, the “soluble on expression in E. coli” value is reported as “soluble”.
With “MSLKALDEPPYLTVGTDVSAKYRGAFCEAKIKTAKRLVKVKVTFRHDSSTVEVQDDHIKGPMKVGAIVEVKNLDGAYQEAVINKLTDASWYTVVFDDGDEKTLRRSSLCLKGERHFAESETLDQLPLTNPEHFGTPVIGKKTNRGRRSNHIPEEESSSSSSDEDEDDRKQIDELLGKVVCVDYISLDKKKALWFPALVVCPDCSDEIAVKKDNIMVRSFKDGKFTSVPRKDVHEITSDTAPKPDAVLKQAFEQALEFHKSRTIPANWKTELKEDSSSSEAEEEEEEEDDEKEKEDNSSEEEEEIEPFPEERENFLQQLYKFMEDRGTPINKRPVLGYRNLNLFKLFRLVHKLGGFDNIESGAVWKQVYQDLGIPVLNSAAGYNVKCAYKKYLYGFEEYCRSANIEFQMALPEKVVNKQCKECENVKEIKVKEENETEIKEIKMEEERNIIPREGHHHHHH” the “soluble on expression in E. coli” value was “soluble”.
In the case of “MSLKALINGTIYTSFNPLKKVSGLVISHGKVIYAGDSEVAKKIVELSGGEIVDLKGKYVMPAFFDSHLHLDELGMSLEMVDLRGAKSIEELIQRLKRGKGRIIFGFGWDQDELGEWPTRKELNAIDKPVFIYRKCFHVAVANDKMLELLNLTPSKDFDEDTGIIKEKSLEEARKVINERVLTVEDYVYYIKRAQEHLLDLGVKSVSFMSVNEKALRALFYLEREGKLSINVFAYVTPEVLDKLESIGLGRFQGNRLTIAGVKLFTDGSLGARTALLSKPYSDDPSTSGQLVMEREELIRITEKARSLGLDVAIHAIGDKALDVALDVFETTGFPGRIEHASLVRDDQLERVKNLKVRLSVQPHFIISDWWIVERVGEERVKWVYRFKDLMKVAELGFSTDSPIEPADPWLTVDAAVNRGKGKVKLYELTKDQALDIKDALHSYTYGSARVSLASDIGKLEPGFKAEYIILDRDPLVVKEGHHHHHH”, the “soluble on expression in E. coli” value is reported as “soluble”.
With “MSLKDSEVTVLGAGVAGLAVARALALRGAEVTVLEQAEAIREVGAGLQISPNGAAVLRALGLGDALEAASMRAQAVELRNGVGGDLVLKLDLARLRPGQGYHLMHRADLIDLLAQGAREAGVQIRLLQKIEAVDLGGPRPRLVTAQGAEYAPNLLIGADGLHSLVRAELNGPAQPFFTNQVAWRTVIPATPGEPVVAEVHMGEGRHLVSYPMRGGTVRNIVAVEERKRWVQEGWNLRDDPVDLRLAFAGFNGRVRHWLEQVPDVWLWGLFRHPVAHTWYRGHAAILGDAAHPTLPFLAQGANMALEDAWVLAECLARHSNIKGGLADYQARRVPRCCRVVQAANNNAWAYHLRSPIREIAHLGLRLGSRLLPGPTLRRFDWLYGYDVTAASLEHHHHHH” the “soluble on expression in E. coli” value was “soluble”.
In the case of “MSLKEELQLKQKLGGQKMVIQGDTLENSARRLLQERGVTMNDLAELVLFLQKDYIDNLTLDTCLESVDAVLTKREVHNAIITGVQLDILAEENKLLSPLQEILTEDEGLYGIDEIMALSIVNVYGSIGFTNYGYIDKVKPGILKELNAHDGEHVHTFLDDIVGAIAAAAASRLAHSQPDLSDITKEGGSHHHHHH”, the “soluble on expression in E. coli” value is reported as “soluble”.
For “MSLKFSAKLVDDPSIEKSSSAIRLMCLSDTHGVHNNINKNTIFPADILLFAGDMTLFGNPEHAESFKNFITSLPVQHKVIISGNLDLPFDLKNYSHFTEWFSKFSYKNGPESIKTTFTEDQDIIYLEHQAVTIENVKIFGSPFTPAFGDFGFPTTKDTASKLWEQVPEDTDVILCHGPPHNICDMTSTGFHAGCPELRKSVERVKPAAVVFGHIHEAHGNTMIGNTLCCNVAIVNSNRDVAYGPTYIDLIQEGHHHHHH”, the “soluble on expression in E. coli” value was “soluble”.
